1 molecule from patent US10287554B2, “Induced pluripotent stem cell model for Fabry disease and use thereof” (KOREA ADVANCED INSTITUTE OF SCIENCE AND TECHNOLOGY, priority 2013, dated 2019) can be followed below.

Type in all cases: cell-based, human
Holding throughout (details): 10 μg/ml for 5 days, compared with before treatment (FIG. 15)

In assay [1] the test system is FB-iPSCs (Fabry disease patient originated iPSCs). The assay can be described thus: Gb3 deposit by anti-Gb3 immunofluorescent staining in FB-iPSCs after Fabrazyme treatment. How it is done: (§1) Particularly, the FB-iPSCs prepared in Example <1-2> were treated with phosphate buffered saline (PBS) containing 4% formaldehyde, followed by fixing at room temperature for 15 minutes. The cells were treated with 0.1% triton X-100 to give permeability to the cell membrane. After the treatment, the cells were added with 4% normal donkey serum, followed by blocking at room temperature for 1 hour. The cells were treated with the primary antibody such as anti-OCT4 antibody (1:300, R&D Systems, USA), anti-NANOG antibody (1:300, Cell signaling technology, USA), anti-SSEA-4 antibody (1:300, R&D Systems, USA), anti-SOX2 rabbit antibody (BD Transduction Laboratories, USA), anti-Tra-1-81 antibody (1:300, Millipore, USA) or anti-Tra-1-60 antibody (1:300, Millipore, USA), followed by culture overnight at 4° C. Then, the cells were washed several times with PBST (PBS containing 0.1% Tween-20). The cells were treated with Alexa Fluor 488 or Alexa Fluor 594-conjugated secondary antibody (Invitrogen, USA), followed by further culture for 1 hour, leading to immunofluorescent staining of FB-iPSCs.
To investigate whether or not the pharmacologic treatment during the FB-iPSC differentiation was effective in improving Fabry disease, the differentiation of vascular cells was induced from FB-iPSCs and then the cells were treated with Fabrazyme, the α-galactosidase recombinant protein. […]

The test system of assay [2] is vascular endothelial cells differentiated from FB-iPSCs. In words: Gb3 deposit by anti-Gb3 immunofluorescent staining in FB-iPSC originated vascular endothelial cells after Fabrazyme treatment. The method, then: as §1
(§2) Particularly, the FB-iPSCs developed by the same manner as described in Example <1-2> were chopped in even sizes of 300˜500 μm in diameter by using a 10 μl syringe needle. […]

Assay [3] concerns vascular smooth muscle cells differentiated from FB-iPSCs. In words: Gb3 deposit by anti-Gb3 immunofluorescent staining in FB-iPSC originated vascular smooth muscle cells after Fabrazyme treatment. The method, then: as §1, §2

B1: Fabrazyme: the α-galactosidase recombinant protein (GLA recombinant protein), belonging to agalsidase beta (protein, UniProt P06280 32-429, looked up)
Alpha-galactosidase A: LDNGLARTPTMGWLHWERFMCNLDCQEEPDSCISEKLFMEMAELMVSEGWKDAGYEYLCIDDCWMAPQRDSEGRLQADPQRFPHGIRQLANYVHSKGLKLGIYADVGNKTCAGFPGSFGYYDIDAQTFADWGVDLLKFDGCYCDSLENLADGYKHMSLALNRTGRSIVYSCEWPLYMWPFQKPNYTEIRQYCNHWRNFADIDDSWKSIKSILDWTSFNQERIVDVAGPGGWNDPDMLVIGNFGLSWNQQVTQMALWAIMAAPLFMSNDLRHISPQAKALLQDKDVIAINQDPLGKQGYQLRQGDNFEVWERPLSGLAWAVAMINRQEIGGPRSYTIAVASLGKGVACNPACFITQLLPVKRKLGFYEWTSRLRSHINPTGTVLLQLENTMQMSLKDLL
As to B1, the Gb3 deposit entry in assay [1] is “significantly reduced and hardly detected”; in assay [2] it was “significantly reduced and hardly detected”; in assay [3], “significantly reduced and hardly detected”.
